What is called Kd is the free concentration of one partner at which half of the binding sites on the other are occupied at equilibrium, for simple one-to-one binding. A lower Kd goes with tighter binding. A word on the koff: it is the first-order rate constant of dissociation. Low values mean slow dissociation, high ones fast dissociation. What is called kon is a measure of how fast the partners come together.

The target of experiment [1] is human EGFR.Fc (extracellular domain of EGFR) (human) (UniProt P00533). The experiment can be described thus: SPR. For orientation: In SPR one partner is held on a chip, and binding of the other changes the refractive index at the surface.
The target in experiment [2] is human HER2.Fc (extracellular domain of HER2) (human) (UniProt P04626). The experiment can be described thus: SPR.

In experiment [1], Z_(EGFR:1907) (designed binder) displayed a Kd of 7.06 nM, a koff of 0.000666 s⁻¹ and a kon of 94300 M⁻¹ s⁻¹.

In experiment [2], Z_(HER2:342) (designed binder) yielded a Kd of 0.076 nM, a koff of 0.000111 s⁻¹ and a kon of 1.45e+06 M⁻¹ s⁻¹.

With Z_(HER2:342).BirA* (designed binder), in experiment [2], the Kd came out at 0.0109 nM, the koff came out at 1.14e-07 s⁻¹ and the kon was 10400 M⁻¹ s⁻¹.

These data come from publication PMC9890520.
